Reference: article PMC12617615, “Decoding substrate recognition in malapain-2 through structural and mutational insights” (Computational and Structural Biotechnology Journal, 2025)

Legend:
[1] = tested on: Cc1cc(=O)oc2cc(NC(=O)[C@H](CCCNC(=N)N)NC(=O)[C@H](CCCNC(=N)N)NC(=O)OCc3ccccc3)ccc12; experiment: purified protein; details: 100 mM sodium acetate pH 5.0, 10 mM DTT, 37 °C, 20 nM enzyme, substrate range 0.1–100 μM
From the text: (§1) fluorogenic AMC release, Michaelis-Menten on malapain-2 (MP-2)

[2] = tested on: Cc1cc(=O)oc2cc(NC(=O)[C@H](CCCNC(=N)N)NC(=O)[C@H](CC(C)C)NC(=O)OCc3ccccc3)ccc12; experiment: purified protein; details: 100 mM sodium acetate pH 5.0, 10 mM DTT, 37 °C, 20 nM enzyme, substrate range 0.1–100 μM
From the text: as §1

In the case of malapain-2 (MP-2) (Plasmodium malariae), the Km [1] is reported as 846.4 ± 0.6 µM and the Km [2] is reported as 111.2 ± 1.2 µM.
